Test results from patent US20180148477A1 (published 2018).
Bridge positions count the residues as written; N and C are the ends. Square brackets hold non-standard residues; d marks the D form. Bip = N[C@@H](Cc1ccc(-c2ccccc2)cc1)C(=O)O; 1Nal = N[C@@H](Cc1cccc2ccccc12)C(=O)O; 2Nal = N[C@@H](Cc1ccc2ccccc2c1)C(=O)O; d1Nal = N[C@H](Cc1cccc2ccccc12)C(=O)O; NMeR = CN[C@@H](CCCNC(=N)N)C(=O)O; Tic = O=C(O)[C@@H]1Cc2ccccc2CN1; β3hE = N[C@@H](CCC(=O)O)CC(=O)O; Cha = N[C@@H](CC1CCCCC1)C(=O)O; Cit = NC(=O)NCCC[C@H](N)C(=O)O; NMeK = CN[C@@H](CCCCN)C(=O)O; Pen = CC(C)(S)[C@H](N)C(=O)O; hLeu = CC(C)CC[C@H](N)C(=O)O; Dab = NCC[C@H](N)C(=O)O

Target: human α4β7 integrin on cells (human) (UniProt P13612)
Test: RPMI8866 adhesion to MAdCAM-1

Row | Binder | IC50 [nM]
1 | Ac-[Pen][NMeR]SDTL[Pen][2Nal]E-NH2 (disulfide 1-7; SMILES CC(=O)N[C@@H]1C(=O)N(C)[C@@H](CCCNC(=N)N)C(=O)N[C@@H](CO)C(=O)N[C@@H](CC(=O)O)C(=O)N[C@@H]([C@@H](C)O)C(=O)N[C@@H](CC(C)C)C(=O)N[C@H](C(=O)N[C@@H](Cc2ccc3ccccc3c2)C(=O)N[C@@H](CCC(=O)O)C(N)=O)C(C)(C)SSC1(C)C) [SEQ ID NO: 75] | > 50
2 | Ac-[Pen][NMeR]SDTL[Pen][Tic][dE][dK]-NH2 (disulfide 1-7; also: dimer (monomer)2-DIG, DIG attachment place not given here) [SEQ ID NO: 80] | > 50
3 | Ac-[Pen][NMeR]SDTL[Pen]W[Cit][dK]-NH2 (disulfide 1-7; also: dimer (monomer)2-DIG, DIG attachment place not given here) [SEQ ID NO: 84] | > 10
4 | Ac-[Pen][NMeR]SDTL[Pen]WE[Dab]-NH2 (disulfide 1-7; also: dimer (monomer)2-DIG, DIG attachment place not given here) [SEQ ID NO: 97] | < 10
5 | Ac-[Pen][NMeR]SDTL[Pen][Bip][dE][dK]-NH2 (disulfide 1-7; also: dimer via DIG, attachment site not given here) [SEQ ID NO: 108] | > 10
6 | Ac-[Pen][NMeR]SDTL[Pen]W[Tic][dK]-NH2 (disulfide 1-7; also: dimer via DIG, attachment site not given here) [SEQ ID NO: 109] | > 100
7 | Ac-[Pen][NMeR]SDTL[Pen][1Nal][dF][dK]-NH2 (disulfide 1-7; also: dimer via DIG, attachment site not given here) [SEQ ID NO: 111] | > 100
8 | Ac-[Pen][NMeR]SDTL[Pen][1Nal][dH][dK]-NH2 (disulfide 1-7 (inferred); also: homodimer via DIG) [SEQ ID NO: 112] | > 50
9 | Ac-[Pen][NMeR]SDTL[Pen][1Nal][dL][dK]-NH2 (disulfide 1-7 (inferred); also: homodimer via DIG) [SEQ ID NO: 113] | > 500
10 | Ac-[Pen][NMeR]SDTL[Pen][1Nal][dR][dK]-NH2 (disulfide 1-7 (inferred); also: homodimer via DIG) [SEQ ID NO: 114] | > 100
11 | Ac-[Pen][NMeR]SDTL[Pen][1Nal][Tic][dK]-NH2 (disulfide 1-7 (inferred); also: homodimer via DIG) [SEQ ID NO: 115] | > 100
12 | Ac-[Pen][NMeR]SDTL[Pen][1Nal][dT][dK]-NH2 (disulfide 1-7 (inferred); also: homodimer via DIG) [SEQ ID NO: 116] | > 50
13 | Ac-[Pen][NMeR]SDTL[Pen][2Nal][dF][dK]-NH2 (disulfide 1-7 (inferred); also: homodimer via DIG) [SEQ ID NO: 117] | > 100
14 | Ac-[Pen][NMeR]SDTL[Pen][2Nal][dH][dK]-NH2 (disulfide 1-7 (inferred); also: homodimer via DIG) [SEQ ID NO: 118] | > 25
15 | Ac-[Pen][NMeR]SDTL[Pen][2Nal][dL][dK]-NH2 (disulfide 1-7 (inferred); also: homodimer via DIG) [SEQ ID NO: 119] | > 500
16 | Ac-[Pen][NMeR]SDTL[Pen][2Nal][dR][dK]-NH2 (disulfide 1-7 (inferred); also: homodimer via DIG) [SEQ ID NO: 120] | > 1000

Row | Binder | IC50 [nM]
17 | Ac-[Pen][NMeR]SDTL[Pen][2Nal][Tic][dK]-NH2 (disulfide 1-7 (inferred); also: homodimer via DIG) [SEQ ID NO: 121] | > 100
18 | Ac-[Pen][NMeR]SDTL[Pen][Bip][β3hE][dK]-NH2 (disulfide 1-7 (inferred); also: homodimer via DIG) [SEQ ID NO: 135] | < 10
19 | Ac-[Pen][NMeR]SDTL[Pen][Bip]E[NMeK]-NH2 (disulfide 1-7 (inferred); also: homodimer via DIG) [SEQ ID NO: 136] | < 10
20 | Ac-[Pen][NMeR]SDTL[Pen][2Nal][dT][dK]-NH2 (disulfide 1-7 (inferred); also: dimer via DIG linker) [SEQ ID NO: 140] | > 10
21 | Ac-[Pen][NMeR]SDVL[Pen][2Nal][dE]-NH2 (disulfide 1-7 (inferred)) [SEQ ID NO: 156] | > 100
22 | Ac-[Pen][NMeR]SDFL[Pen][2Nal][dE]-NH2 (disulfide 1-7; SMILES CC(=O)N[C@@H]1C(=O)N(C)[C@@H](CCCNC(=N)N)C(=O)N[C@@H](CO)C(=O)N[C@@H](CC(=O)O)C(=O)N[C@@H](Cc2ccccc2)C(=O)N[C@@H](CC(C)C)C(=O)N[C@H](C(=O)N[C@@H](Cc2ccc3ccccc3c2)C(=O)N[C@H](CCC(=O)O)C(N)=O)C(C)(C)SSC1(C)C) [SEQ ID NO: 157] | > 1000
23 | Ac-[Pen][NMeR]SD[Cha]L[Pen][2Nal][dE]-NH2 (disulfide 1-7; SMILES CC(=O)N[C@@H]1C(=O)N(C)[C@@H](CCCNC(=N)N)C(=O)N[C@@H](CO)C(=O)N[C@@H](CC(=O)O)C(=O)N[C@@H](CC2CCCCC2)C(=O)N[C@@H](CC(C)C)C(=O)N[C@H](C(=O)N[C@@H](Cc2ccc3ccccc3c2)C(=O)N[C@H](CCC(=O)O)C(N)=O)C(C)(C)SSC1(C)C) [SEQ ID NO: 158] | > 1000
24 | Ac-[Pen][NMeR]SDLL[Pen][2Nal][dE]-NH2 (disulfide 1-7; SMILES CC(=O)N[C@@H]1C(=O)N(C)[C@@H](CCCNC(=N)N)C(=O)N[C@@H](CO)C(=O)N[C@@H](CC(=O)O)C(=O)N[C@@H](CC(C)C)C(=O)N[C@@H](CC(C)C)C(=O)N[C@H](C(=O)N[C@@H](Cc2ccc3ccccc3c2)C(=O)N[C@H](CCC(=O)O)C(N)=O)C(C)(C)SSC1(C)C) [SEQ ID NO: 159] | > 1000
25 | Ac-[Pen][NMeR]SDIL[Pen][2Nal][dE]-NH2 (disulfide 1-7; SMILES CC[C@H](C)[C@@H]1NC(=O)[C@H](CC(=O)O)NC(=O)[C@H](CO)NC(=O)[C@H](CCCNC(=N)N)N(C)C(=O)[C@@H](NC(C)=O)C(C)(C)SSC(C)(C)[C@@H](C(=O)N[C@@H](Cc2ccc3ccccc3c2)C(=O)N[C@H](CCC(=O)O)C(N)=O)NC(=O)[C@H](CC(C)C)NC1=O) [SEQ ID NO: 160] | > 1000
26 | Ac-[Pen][NMeR]SD[hLeu]L[Pen][2Nal][dE]-NH2 (disulfide 1-7; SMILES CC(=O)N[C@@H]1C(=O)N(C)[C@@H](CCCNC(=N)N)C(=O)N[C@@H](CO)C(=O)N[C@@H](CC(=O)O)C(=O)N[C@@H](CCC(C)C)C(=O)N[C@@H](CC(C)C)C(=O)N[C@H](C(=O)N[C@@H](Cc2ccc3ccccc3c2)C(=O)N[C@H](CCC(=O)O)C(N)=O)C(C)(C)SSC1(C)C) [SEQ ID NO: 161] | > 1000
27 | Ac-[Pen][NMeR]SDTF[Pen][2Nal][dE]-NH2 (disulfide 1-7; SMILES CC(=O)N[C@@H]1C(=O)N(C)[C@@H](CCCNC(=N)N)C(=O)N[C@@H](CO)C(=O)N[C@@H](CC(=O)O)C(=O)N[C@@H]([C@@H](C)O)C(=O)N[C@@H](Cc2ccccc2)C(=O)N[C@H](C(=O)N[C@@H](Cc2ccc3ccccc3c2)C(=O)N[C@H](CCC(=O)O)C(N)=O)C(C)(C)SSC1(C)C) [SEQ ID NO: 162] | > 1000
28 | Ac-[Pen][NMeR]SDTQ[Pen][2Nal][dE]-NH2 (disulfide 1-7; SMILES CC(=O)N[C@@H]1C(=O)N(C)[C@@H](CCCNC(=N)N)C(=O)N[C@@H](CO)C(=O)N[C@@H](CC(=O)O)C(=O)N[C@@H]([C@@H](C)O)C(=O)N[C@@H](CCC(N)=O)C(=O)N[C@H](C(=O)N[C@@H](Cc2ccc3ccccc3c2)C(=O)N[C@H](CCC(=O)O)C(N)=O)C(C)(C)SSC1(C)C) [SEQ ID NO: 163] | > 1000
29 | Ac-[Pen][NMeR]SDTY[Pen][2Nal][dE]-NH2 (disulfide 1-7; SMILES CC(=O)N[C@@H]1C(=O)N(C)[C@@H](CCCNC(=N)N)C(=O)N[C@@H](CO)C(=O)N[C@@H](CC(=O)O)C(=O)N[C@@H]([C@@H](C)O)C(=O)N[C@@H](Cc2ccc(O)cc2)C(=O)N[C@H](C(=O)N[C@@H](Cc2ccc3ccccc3c2)C(=O)N[C@H](CCC(=O)O)C(N)=O)C(C)(C)SSC1(C)C) [SEQ ID NO: 164] | > 1000
30 | Ac-[Pen][NMeR]SDTL[Pen][2Nal][dY][dK]-NH2 (disulfide 1-7; also: dimer via DIG) [SEQ ID NO: 27] | > 25
31 | Ac-[Pen][NMeR]SDTL[Pen][d1Nal]E[dK]-NH2 (disulfide 1-7; also: dimer via DIG) [SEQ ID NO: 34] | > 25
